Laboratory results taken from patent US20050239072.

Molecular target: human recombinant prion protein hrPrP (PrP23-231) (Homo sapiens) (UniProt P04156)
Assay: FP filter
[1] = no tRNA, 250 mM NaCl, 2 mM MgCl2, 37 C

Substance | Kd [1] | Kd (with tRNA competitor)
MDV (244 nt) | 7.6 nM | 170 nM
MNV (86 nt) | 38 nM | 1000 nM
